In patent US20070072177A1 (CRUCELL HOLLAND B V, published 2007):

T1: glycoprotein of rabies virus strain CVS-11 (rabies virus strain CVS-11, UniProt O92284 20-524)
T1 sequence: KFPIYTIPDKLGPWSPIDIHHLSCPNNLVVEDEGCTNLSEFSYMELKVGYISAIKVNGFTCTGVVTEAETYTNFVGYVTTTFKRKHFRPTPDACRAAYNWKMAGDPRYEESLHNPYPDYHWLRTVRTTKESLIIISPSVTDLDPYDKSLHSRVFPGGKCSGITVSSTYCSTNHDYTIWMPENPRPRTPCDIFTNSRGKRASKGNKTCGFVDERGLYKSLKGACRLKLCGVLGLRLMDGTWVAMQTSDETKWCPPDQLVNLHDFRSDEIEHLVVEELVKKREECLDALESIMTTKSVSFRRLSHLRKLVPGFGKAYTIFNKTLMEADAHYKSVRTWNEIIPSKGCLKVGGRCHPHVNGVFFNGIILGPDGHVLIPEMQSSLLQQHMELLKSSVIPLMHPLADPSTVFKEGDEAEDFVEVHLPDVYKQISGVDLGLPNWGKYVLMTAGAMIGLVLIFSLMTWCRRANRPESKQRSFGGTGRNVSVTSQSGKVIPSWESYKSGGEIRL


Key:
[1] = molecular target: T1, glycoprotein of rabies virus strain …; experiment: cell-based or functional assay
[2] = molecular target: purified rabies virus glycoprotein (rabies virus ERA strain) (rabies virus strain ERA, UniProt P03524 20-524); experiment: phage ELISA on coated purified G protein (ERA), anti-M13-HRP

Binder	Potency (IU/ml) [1]	OD 492 nm [2]
SC04-060 (scFv) scFv: AMAQVQLVESGPGLVKASETLSLTCTVSDGSISSFYWSWIRQPPGKGLEWVGEIQDTGRTNYNPSLKSRVTISLDTSKNQFSLTLSSVTAADTAVYYCAREKEKYSDRSGYSYYYYYMDVWGKGTTVTVSSGTGGSGGTGSGTGGSTDIQMTQSPSSLSASVGDRVTITCRASQGISTYLNWYQQKPGKAPNLLIYGASNLQSGVPSRFSGSESGTDFTLTISSLQPEDFATYYCQQSFTTPRTFGQGTKLEIKRAAA	0.2 IU/ml	0.923 OD 492 nm
SC04-021 (scFv) scFv: AMAEVQLVESGGGVVQPGRSLRLSCAASGFTFSSYGMHWVRQAPGKGLEWVAVISYDGSSKYYADSVKGRFTISRDNSKNTLYLQMNSLRAEDTAVYYCAKGSVLGDAFDIWGQGTMVTVSSGTGGSGGTGSGTGGSTDIQMTQSPFSLSASVGDRVTITCRASQGIGSSLAWYQQKPGKAPKLLIYAASSLQSGVPSRFSGSGSGTDFTLTISSLQPEDFATYFCLQHHDYPLTFGGGTKLEIKRAAA	1.3 IU/ml	0.278 OD 492 nm
SC04-010 (scFv) scFv: AMAQVQLVQSGGDLVQPGRSLRLSCAASGFTFSSYGMHWVRQAPGKGLEWVADISYDGSNKYYADSVKGRFTISRDNSKNTLYLQMNSLRAEDTAVYYCAKDGLDLTGTIQPFGYWGQGTLVTVSSGTGGSGGTGSGTGGSTDIQMTQSPSSLSASVGDRVTITCRASQGIRNDLGWYQQKPGKAPKLLIYAASSLQSGVPSRFSGSGSGTDFTLTISSLQPEDFATYYCLQDYNYPRTFGQGTKVEIKRAAA	4 IU/ml	0.915 OD 492 nm
SC04-097 (scFv) scFv: AMAEVQLVQSGGHLVQPGGSLRLSCAASGFTFSSYAMSWVRQAPGKGLEWVSLIIGSGRSTYYADSVKGRFTISRDNSKNTLYLQMNSLRAEDTAVYYCAKTASNLGRGGMDVWGQGTTVTVSSGTGGSGGTGSGTGGSTDIQLTQSPSSLSASVGDRVTITCRASQGISSHLAWYQQKPGKAPKLLIYAASSLQSGVPSRFSGSGSGTEFTLTISSLQPEDFATYYCQQFNSYPITFGQGTRLEIKRAAA	0.2 IU/ml	0.835 OD 492 nm
SC04-164 (scFv) scFv: AMAEVQLVESGGGVVQPGRSLRLSCAASGFTFSSYGMHWVRQAPGKGLEWVAVISYDGSSKYYADSVKGRFTISRDNSKNTLYLQMNSLRAEDTAVYYCAKGSVLGDAFDIWGQGTMVTVSSGTGGSGGTGSGTGGSTDIQLTQSPSSVSASVGDRVTITCRASQGISSWLAWYQQKPGKAPKLLIYAASSLQSGVPSRFSGSGSGTDFTLTISSLQPEDFATYYCQQANSFPLTFGGGTKVDIKRAAA	0.3 IU/ml	0.547 OD 492 nm
SC04-038 (scFv) scFv: AMAQVQLVQSGGGVVQPGRSLRLSCAASGFTFSSYGMHWVRQAPGKGLEWVAVISYDGSSKYYADSVKGRFTISRDNSKNTLYLQMNSLRAEDTAVYYCAKGSVLGDAFDIWGQGTMVTVSSGTGGSGGTGSGTGGSTDIQLTQSPSSVSASVGDRVTITCRASQGISGWLAWYQQKPEKAPKLLIYAASSLQRGVPSRFSGSGSGTDFTLTISSLQPEDFATYYCQQANSFPPTFGQGTRLEIKRAAA	2 IU/ml	0.653 OD 492 nm
SC04-031 (scFv) scFv: AMAEVQLVESGGGVVQPGRSLRLSCAASGFTFSSYGMHWVRQAPGKGLEWVAVISYDGSNKYYADSVKGRFTISRDNSKNTLYLQMNSLRAEDTAVYYCAKGSVLGDAFDIWGQGTMVTVSSGTGGSGGTGSGTGGSTDIQMTQSPSFVSASVGDRVTITCRASQGISSWLAWYQQKPGKAPKLLIYAASSLQSGVPSRFSGSGSGTDFTLTISSLQPEDFATYYCQQANSFPLTFGGGTKVEIKRAAA	0.7 IU/ml	0.721 OD 492 nm
SC04-026 (scFv) scFv: AMAEVQLVESGAEVKKPGESLKISCKGSGYNFPYSWIAWVRQMPGKGLEWMGIIFPGDSDTRYSPPFQGQVTISADNSKSTAYLQWSSLKASDTAMYYCARTSNWNYLDRFDPWGQGTLVTVSSGTGGSGGTGSGTGGSTDVVMTQSPLSLPVTPGEPASISCRSSQSLLHSNGHDYLDWYVQKPGQSPQPLIYLGSDRASGVPDRFSGSGSGTHFTLNISRVEAEDVGVYYCMQSLQTPWTFGQGTKLEIKRAAA	0.3 IU/ml	0.212 OD 492 nm
SC04-001 (scFv) scFv: AMAEVQLVESGGGVVRPGGSLRLSCAASGFTFDDYGMSWVRQAPGKGLEWVSGINWNGGSTGYADSVKGRFTISRDNAKNSLYLQMNSLRAEDTAVYYCAKGLYGELFDYWGQGTLVTVSRGGGGSGGGGSGGGGSSELTQDPAVSVALGQTVRITCQGDSLRSYYASWYQQKPGQAPVLVIYGKNNRPSGIPDRFSGSSSGNTASLTITGAQAEDEADYYCNSRDSSGNHVVFGGGTKLTVLGAAA	1.3 IU/ml	0.828 OD 492 nm
scFv SO57 (scFv) scFv: AMAQVQLVQSGAEVKKPGSSVKVSCKASGGTFNRYTVNWVRQAPGQGLEWMGGIIPIFGTANYAQRFQGRLTITADESTSTAYMELSSLRSDDTAVYFCARENLDNSGTYYYFSGWFDPWGQGTLVTVSSGTGGSGGTGSGTGGSTQSALTQPRSVSGSPGQSVTISCTGTSSDIGGYNFVSWYQQHPGKAPKLMIYDATKRPSGVPDRFSGSKSGNTASLTISGLQAEDEADYYCCSYAGDYTPGVVFGGGTKLTVLGAAA	–	0.65 OD 492 nm
SC04-018 (scFv) scFv: AMAEVQLVESGPGLVRPSGTLSLTCAVSGGSISSSNWWSWVRQPPGKGLEWIGEIYHSGSTNYNPSLKSRVTISVDKSKNQFSLKLSSVTAADTAVYYCARVSVTTGAFNIWGQGTMVTVSSGTGGSGGTGSGTGGSTQPVLTQPLSASGTPGQRVTISCSGDTSNIGSNTVHWYQRLPGTAPKLLIHNNNQRPSGVPDRFSGAKSGTSASLAISGLQSEDEADYFCAAWDDNLNGYVFGTGTKVTVLGAAA	0.1 IU/ml	0.247 OD 492 nm
SC04-103 (scFv) scFv: AMAQVQLQESGGGVVQPGRSLRLSCAASGFTFSSYGMHWVRQAPGKGLEWVAVILYDGSDKYYADSVKGRFTISRDNSKNTLYLQMNSLRAEDTAVYYCAKVAVAGESFDSWGRGTLVTVSSGTGGSGGTGSGTGGSTDIQLTQSPSSVSASVGDRVTITCRASQGISSWLAWYQQKPGKAPRSLIYDASSLQSGVPSRFSGSGSGTDFTLTISSLQPEDFATYYCQQADSFPITFGQGTRLEIKRAAA	0.3 IU/ml	0.606 OD 492 nm
SC04-098 (scFv) scFv: AMAEVQLVQSGGGAVQPGRSLRLSCAASGFTFSSYGMHWVRQAPGKGLEWVAVILYDGSDKFYADSVKGRFTISRDNSKNTLYLQMNSLRAEDTAVYYCAKVAVAGTHFDYWGQGTLVTVSSGTGGSGGTGSGTGGSTDIQMTQSPSSLSASVGDRVTITCRASQGIRNDLGWYQQKPGKAPKLLIYAASSLQSGVPSRFSGSGSGTDFTLTISSLQPEDFATYYCQQLNSYPPTFGGGTKVEIKRAAA	9 IU/ml	0.798 OD 492 nm
SC04-073 (scFv) scFv: AMAQVQLVQSGGGVAQPGRSLRLSCAASGFTFSSYGMHWVRQAPGKGLEWVADISYDGSNKYYADSVKGRFTISRDNSKNTLYLQMNSLRAEDTAVYYCAKDGLDLTGTIQPFGYWGQGTLVTVSSGTGGSGGTGSGTGGSTDIQLTQSPSFLSASVGDRVTITCRASHSISSWLAWYQQKPGKAPKLLIYKASSLESGVPSRFSGSGSGTDFTLTISSLQPEDFATYYCLQDYNYPRTFGQGTKLEIKRAAA	3 IU/ml	0.657 OD 492 nm
SC04-040 (scFv) scFv: AMAQVQLVQSGGGVVQPGRSLRLSCAASGFTFGSYGMHWVRQAPGKGLEWVATIFYDGSYKDYADSVKGRFTISRDNSKNTLYLQMNSLRAEDTAVYYCAKGSKVGDFDYWGQGTLVTVSSGTGGSGGTGSGTGGSTQPVLTQPPSVSVAPGQTARISCGGDNIGTNTVQWYQQKPGQAPVLVVYDDSDRPSGIPERFSGSNSGDTATLTISRVEAGDEADYYCQVWDDSSDLVVFGGGTKVTVLGAAA	0.3 IU/ml	0.74 OD 492 nm
SC04-008 (scFv) scFv: AMAQVTLKESGPTLVKPTQTLTLTCTFSGFSLSTSGVGVGWIRQPPGKALEWLARIDWDDDKYYSTSLKTRLTISKDTSKNQVVLTMTNMDPVDTATYYCARMGFTGTYFDYWGQGTLVTVSSGTGGSGGTGSGTGGSTQAVLTQPSSVSVAPGETASVTCGGDNIGSKSVHWYQKKPGQAPVLVVFDDSDRPSGIPERFSGSTSGNTAALTISRVEAGDEADYYCQVWDSSNDHLYVFGPGTQLTVLSAAA	> 54 IU/ml	0.582 OD 492 nm
SC04-104 (scFv) scFv: AMAQVQLQESGGGVVQPGRSLRLSCAASGFTFSSYGMHWVRQAPGKGLEWVATISYDGNVKDYADSVKGRFTISRDNSKNTLYLQMNSLRTEDTAVYYCAKIVVVTALDAFDIWGQGTMVTVSSGTGGSGGTGSGTGGSTDIQLTQSPSTLSASVGDRVTITCRASQILGHWLPLSWYQQKPGKAPKLLISKASSLESGVPPRFSGSGSGSDFTLTISSLQPDDFATYYCLQYHEYPLTFGGGTKLEIKRAAA	1 IU/ml	0.566 OD 492 nm
